T1: CEACAM1 (Sino Biological) (human, UniProt P13688 35-428, limits assumed)
T1 construct: may be the same as CEACAM1-HIS; also called hCEACAM1; biotinylated soluble CEACAM1
T1 sequence: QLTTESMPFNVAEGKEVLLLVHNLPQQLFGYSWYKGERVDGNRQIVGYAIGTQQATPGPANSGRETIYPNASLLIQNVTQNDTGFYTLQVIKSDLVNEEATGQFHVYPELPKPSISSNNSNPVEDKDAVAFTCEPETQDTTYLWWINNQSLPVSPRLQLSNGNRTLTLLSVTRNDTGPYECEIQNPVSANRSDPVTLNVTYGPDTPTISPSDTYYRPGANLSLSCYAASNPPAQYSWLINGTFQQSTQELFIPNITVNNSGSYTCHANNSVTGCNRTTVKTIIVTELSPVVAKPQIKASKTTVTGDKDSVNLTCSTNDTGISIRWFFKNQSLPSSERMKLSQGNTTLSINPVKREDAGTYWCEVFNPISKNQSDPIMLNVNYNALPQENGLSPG

T2: CEACAM1-HIS (Sino Biologics Inc.) (Homo sapiens (Human), UniProt P13688 35-428)
T2 construct: bought; not shown: His tag
T2 sequence: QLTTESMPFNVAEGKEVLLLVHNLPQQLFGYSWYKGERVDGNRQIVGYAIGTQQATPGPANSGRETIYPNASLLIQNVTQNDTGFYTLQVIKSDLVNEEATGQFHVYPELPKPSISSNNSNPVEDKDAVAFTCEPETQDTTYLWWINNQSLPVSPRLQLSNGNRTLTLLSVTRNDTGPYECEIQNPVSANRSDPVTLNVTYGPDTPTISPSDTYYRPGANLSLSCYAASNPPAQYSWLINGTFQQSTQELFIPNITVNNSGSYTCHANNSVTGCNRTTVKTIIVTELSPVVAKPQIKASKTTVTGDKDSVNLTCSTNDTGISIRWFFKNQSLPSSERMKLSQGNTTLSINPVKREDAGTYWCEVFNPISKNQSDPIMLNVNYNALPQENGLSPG


Columns and labels:
[1] = biological target: T1, CEACAM1 (Sino Biological); assay: SPR single-cycle
How it was run: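 Humanized affinity-matured IgGs from crude supernatants captured on Protein A to ~100 RU, with CEACAM1 analyte injected at 25–100 nM (three-point, two-fold) in HBS-P+ without regeneration. 200 s association per injection, 300 s single dissociation; reference-channel and blank subtracted.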

[2] = biological target: T2, CEACAM1-HIS (Sino Biologics Inc.); assay: SPR single-cycle, IgG on Protein A
Procedure: As an alternative approach to assess the binding of the antibody combinations and the control antibodies to CEACAM1, a kinetic analysis was performed on a Biacore T200 running Biacore T200 Evaluation Software V2.0.1. All experiments were run at 25° C. with HBS-P+ running buffer (pH 7.4).
In order to assess the binding of all Composite Human Antibody™ variants, single cycle kinetic analysis was performed on the supernatants of all the transiently transfected HEK EBNA cells. Purified chimeric antibody and purified chimeric antibody spiked into HEK EBNA media were used as positive controls. Supernatants were diluted in HBS-P+ to a concentration of 1 μg/mL (as determined by an IgG quantitation ELISA). At the start of each cycle, antibodies were loaded onto Fc2, Fc3 and Fc4 of a Protein A chip and captured at a flow rate of 8 μL/min to give an RU of ˜100. The surface was then allowed to stabilize. Single cycle kinetic data was obtained at a flow rate of […] to minimize any potential mass transfer effects. Multiple repeats of the chimeric antibody were performed to check the stability of the surface and analyte over the kinetic cycles. The signal from the reference channel Fc1 (no antibody) was subtracted from that of Fc2, Fc3 and Fc4 to correct for differences in non-specific binding to a reference surface. A 5 point 2-fold dilution range from 3.125 to 50 nM CEACAM1 without regeneration between each concentration was used. The association phase for the 5 injections of increasing concentrations of CEACAM1 was monitored for 150 seconds and a single dissociation phase was measured for 150 seconds following the last injection of CEACAM1. Regeneration of the Protein A was conducted using 2 injections of 10 mM glycine-HCL pH 1.5 followed by a stabilization period of 500 seconds.
In the raw sensorgrams for the single cycle kinetics, the signal from each antibody blank run (no CEACAM1) was subtracted to correct for differences in surface stability.

| Binder | Kd [1] [nM] | fold better than Parent (KD) [1] [fold] | Kd [2] [nM] | relative KD to chimeric parental antibody [2] [ratio] |
| --- | --- | --- | --- | --- |
| Parent VH/L4 #1 (antibody, IgG4, V domains shown, IgG4 S241P, kappa) VH: EVQLLESGGGLVQPGGSLRLSCAASGFSFSDYYLYWVRQAPGKGLEWVATISVGGGQTSYADSVKGRFTISRDNSKNTLYLQMNSLRAEDTAMYYCTRGLYYGPAWFAYWGQGTLVTVSS VL: DIVMTQSPDSLAVSLGERATINCKSSQSLLNSANQKNYLAWYQQKPGQPPKLLIYFASTRESGVPDRFSGSGSGTDFTLTISSLQAEDVAVYYCQSHFPYYYTFGGGTKVEIK | 103 | 1.54 | – | – |
| He17/Parent VL (antibody, IgG4, V domains shown, IgG4 S241P, kappa) VH: EVQLLESGGGLVQPGGSLRLSCAASGFSFSDYYLYWVRQAPGKGLEWVATISVGGGQTSYADSVKGRFTISRDNSKNTLYLQMNSLRAEDTAMYYCTRARTYGPAWFAYWGQGTLVTVSS VL: not shown | 128 | 1.24 | – | – |
| VH3/Vκ1 (antibody, V domains shown) VH: EVQLLESGGGLVQPGGSLRLSCAASGFIFSSHGMSWVRQAPGKGLEWVATISSGGTYTYYADSVKGRFTISRDNSKNTLYLQMNSLRAEDTAMYYCARHDFDYDAAWFAYWGQGTLVTVSS VL: QIVLTQSPALLSLSPGERATMSCSANSSVSYMYWYRQKPGQAPKPWIYLTSNLASGVPARFSGSGSGTDYTLTISSLEAEDFATYYCQQWSSNPPTFGQGTKLEIK | – | – | 1500 | 34.7 |
| VH3/Vκ2 (antibody, V domains shown) VH: EVQLLESGGGLVQPGGSLRLSCAASGFIFSSHGMSWVRQAPGKGLEWVATISSGGTYTYYADSVKGRFTISRDNSKNTLYLQMNSLRAEDTAMYYCARHDFDYDAAWFAYWGQGTLVTVSS VL: EIVLTQSPATLSLSPGERATLSCRANSSVSYMYWYQQKPGQAPRPWIYLTSNRATGVPARFSGSGSGTDYTLTISSLEPEDFATYYCQQWSSNPPTFGQGTKLEIK | – | – | 265 | 6.1 |
| VH4/Vκ2 (antibody, V domains shown) VH: EVQLLESGGGLVQPGGSLRLSCAASGFIFSSHGMSWVRQAPGKGLEWVSTISSGGTYTYYADSVKGRFTISRDNSKNTLYLQMNSLRAEDTAVYYCARHDFDYDAAWFAYWGQGTLVTVSS VL: EIVLTQSPATLSLSPGERATLSCRANSSVSYMYWYQQKPGQAPRPWIYLTSNRATGVPARFSGSGSGTDYTLTISSLEPEDFATYYCQQWSSNPPTFGQGTKLEIK | – | – | 3950 | 91.4 |
| VH4/Vκ1 (antibody, V domains shown) VH: EVQLLESGGGLVQPGGSLRLSCAASGFIFSSHGMSWVRQAPGKGLEWVSTISSGGTYTYYADSVKGRFTISRDNSKNTLYLQMNSLRAEDTAVYYCARHDFDYDAAWFAYWGQGTLVTVSS VL: QIVLTQSPALLSLSPGERATMSCSANSSVSYMYWYRQKPGQAPKPWIYLTSNLASGVPARFSGSGSGTDYTLTISSLEAEDFATYYCQQWSSNPPTFGQGTKLEIK | – | – | 243 | 5.6 |

Second part, the binder after the results:

| Kd [1] [nM] | fold better than Parent (KD) [1] [fold] | Kd [2] [nM] | relative KD to chimeric parental antibody [2] [ratio] | Binder |
| --- | --- | --- | --- | --- |
| 99 | 1.61 | – | – | He17/L20 (antibody, IgG4, V domains shown, IgG4 S241P, kappa) VH: EVQLLESGGGLVQPGGSLRLSCAASGFSFSDYYLYWVRQAPGKGLEWVATISVGGGQTSYADSVKGRFTISRDNSKNTLYLQMNSLRAEDTAMYYCTRARTYGPAWFAYWGQGTLVTVSS VL: DIVMTQSPDSLAVSLGERATINCKSSQSLLNSANQKNYLAWYQQKPGQPPKLLIYFASTRESGVPDRFSGSGSGTDFTLTISSLQAEDVAVYYCQSHFPYPLTFGGGTKVEIK |
| 87 | 1.83 | – | – | Parent VH/L20 (antibody, IgG4, V domains shown, IgG4 S241P, kappa) VH: EVQLLESGGGLVQPGGSLRLSCAASGFSFSDYYLYWVRQAPGKGLEWVATISVGGGQTSYADSVKGRFTISRDNSKNTLYLQMNSLRAEDTAMYYCTRGLYYGPAWFAYWGQGTLVTVSS VL: DIVMTQSPDSLAVSLGERATINCKSSQSLLNSANQKNYLAWYQQKPGQPPKLLIYFASTRESGVPDRFSGSGSGTDFTLTISSLQAEDVAVYYCQSHFPYPLTFGGGTKVEIK |
| 66 | 2.42 | – | – | Parent VH/L5 (antibody, IgG4, V domains shown, IgG4 S241P, kappa) VH: EVQLLESGGGLVQPGGSLRLSCAASGFSFSDYYLYWVRQAPGKGLEWVATISVGGGQTSYADSVKGRFTISRDNSKNTLYLQMNSLRAEDTAMYYCTRGLYYGPAWFAYWGQGTLVTVSS VL: DIVMTQSPDSLAVSLGERATINCKSSQSLLNSANQKNYLAWYQQKPGQPPKLLIYFASTRESGVPDRFSGSGSGTDFTLTISSLQAEDVAVYYCQSHYPFAFTFGGGTKVEIK |
| 57 | 2.81 | – | – | Parent VH/L6 (antibody, IgG4, V domains shown, IgG4 S241P, kappa) VH: EVQLLESGGGLVQPGGSLRLSCAASGFSFSDYYLYWVRQAPGKGLEWVATISVGGGQTSYADSVKGRFTISRDNSKNTLYLQMNSLRAEDTAMYYCTRGLYYGPAWFAYWGQGTLVTVSS VL: DIVMTQSPDSLAVSLGERATINCKSSQSLLNSANQKNYLAWYQQKPGQPPKLLIYFASTRESGVPDRFSGSGSGTDFTLTISSLQAEDVAVYYCQSHYPFSFTFGGGTKVEIK |
| 77 | 2.08 | – | – | Parent VH/L19 (antibody, IgG4, V domains shown, IgG4 S241P, kappa) VH: EVQLLESGGGLVQPGGSLRLSCAASGFSFSDYYLYWVRQAPGKGLEWVATISVGGGQTSYADSVKGRFTISRDNSKNTLYLQMNSLRAEDTAMYYCTRGLYYGPAWFAYWGQGTLVTVSS VL: DIVMTQSPDSLAVSLGERATINCKSSQSLLNSANQKNYLAWYQQKPGQPPKLLIYFASTRESGVPDRFSGSGSGTDFTLTISSLQAEDVAVYYCQSHIYPNFTFGGGTKVEIK |
| 76 | 2.08 | – | – | Parent VH/L17 (antibody, IgG4, V domains shown, IgG4 S241P, kappa) VH: EVQLLESGGGLVQPGGSLRLSCAASGFSFSDYYLYWVRQAPGKGLEWVATISVGGGQTSYADSVKGRFTISRDNSKNTLYLQMNSLRAEDTAMYYCTRGLYYGPAWFAYWGQGTLVTVSS VL: DIVMTQSPDSLAVSLGERATINCKSSQSLLNSANQKNYLAWYQQKPGQPPKLLIYFASTRESGVPDRFSGSGSGTDFTLTISSLQAEDVAVYYCQSHYPYPYTFGGGTKVEIK |
| 70 | 2.26 | – | – | Parent VH/L2 (antibody, IgG4, V domains shown, IgG4 S241P, kappa) VH: EVQLLESGGGLVQPGGSLRLSCAASGFSFSDYYLYWVRQAPGKGLEWVATISVGGGQTSYADSVKGRFTISRDNSKNTLYLQMNSLRAEDTAMYYCTRGLYYGPAWFAYWGQGTLVTVSS VL: DIVMTQSPDSLAVSLGERATINCKSSQSLLNSANQKNYLAWYQQKPGQPPKLLIYFASTRESGVPDRFSGSGSGTDFTLTISSLQAEDVAVYYCQSHYPFPYTFGGGTKVEIK |
| 63 | 2.53 | – | – | Parent VH/L3 (antibody, IgG4, V domains shown, IgG4 S241P, kappa) VH: EVQLLESGGGLVQPGGSLRLSCAASGFSFSDYYLYWVRQAPGKGLEWVATISVGGGQTSYADSVKGRFTISRDNSKNTLYLQMNSLRAEDTAMYYCTRGLYYGPAWFAYWGQGTLVTVSS VL: DIVMTQSPDSLAVSLGERATINCKSSQSLLNSANQKNYLAWYQQKPGQPPKLLIYFASTRESGVPDRFSGSGSGTDFTLTISSLQAEDVAVYYCQSHFPFPFTFGGGTKVEIK |
